# *1 amine or outer side, *2 acyl side, *3 side chain or, on linkers, in order; H or OH if unused. [ ]: non-standard residue; d: D form. TyrEtNAc = L-tyrosine O-ethyl acetamide, (S)-3-(4-(2-acetamidoethoxy)phenyl)-2-aminopropanoic acid, CC(=O)NCCOc1ccc(C[C@H](N[*:1])C(=O)[*:2])cc1; Trp(4-Cl)(βS-Me) = C[C@@H](c1c[nH]c2cccc(Cl)c12)[C@H](N)C(=O)O; Pro(trans-4-NH2) = O=C([C@@H]1C[C@@H](N[*:3])CN1[*:1])[*:2]; Bip(4'-COOH) = N[C@@H](Cc1ccc(-c2ccc(C(=O)O)cc2)cc1)C(=O)O; SerOMe = O-methyl-L-serine, COC[C@H](N[*:1])C(=O)[*:2]; Phe(4-COOH) = N[C@@H](Cc1ccc(C(=O)O)cc1)C(=O)O; hTyr = N[C@@H](CCc1ccc(O)cc1)C(=O)O; hPhe = N[C@@H](CCc1ccccc1)C(=O)O; dDab = NCC[C@@H](N)C(=O)O; dNMeA = CN[C@H](C)C(=O)O
# Molecular target: Recombinant human IL-1β (BioLegend 579404) (human, UniProt P01584 117-269)
# Assay: cell-based or functional assay
row,Binder,MRC5 IC50
1,cyclo([TyrEtNAc]W[Phe(4-COOH)]G[Pro(trans-4-NH2)][Trp(4-Cl)(βS-Me)]D[dNMeA]G[Bip(4'-COOH)]W[SerOMe][dA][hPhe]) (SMILES COC[C@@H]1NC(=O)[C@H](Cc2c[nH]c3ccccc23)NC(=O)[C@H](Cc2ccc(-c3ccc(C(=O)O)cc3)cc2)NC(=O)CNC(=O)[C@@H](C)N(C)C(=O)[C@H](CC(=O)O)NC(=O)[C@H]([C@@H](C)c2c[nH]c3cccc(Cl)c23)NC(=O)[C@@H]2C[C@@H](N)CN2C(=O)CNC(=O)[C@H](Cc2ccc(C(=O)O)cc2)NC(=O)[C@H](Cc2c[nH]c3ccccc23)NC(=O)[C@H](Cc2ccc(OCCNC(C)=O)cc2)NC(=O)[C@H](CCc2ccccc2)NC(=O)[C@@H](C)NC1=O) [SEQ ID NO: 152 (Example No. 152)],0.06 nM
2,cyclo([TyrEtNAc]W[Phe(4-COOH)]G[Pro(trans-4-NH2)][Trp(4-Cl)(βS-Me)]D[dNMeA]G[Bip(4'-COOH)]WL[dA][hTyr]) (SMILES CC(=O)NCCOc1ccc(C[C@@H]2NC(=O)[C@H](CCc3ccc(O)cc3)NC(=O)[C@@H](C)NC(=O)[C@H](CC(C)C)NC(=O)[C@H](Cc3c[nH]c4ccccc34)NC(=O)[C@H](Cc3ccc(-c4ccc(C(=O)O)cc4)cc3)NC(=O)CNC(=O)[C@@H](C)N(C)C(=O)[C@H](CC(=O)O)NC(=O)[C@H]([C@@H](C)c3c[nH]c4cccc(Cl)c34)NC(=O)[C@@H]3C[C@@H](N)CN3C(=O)CNC(=O)[C@H](Cc3ccc(C(=O)O)cc3)NC(=O)[C@H](Cc3c[nH]c4ccccc34)NC2=O)cc1) [SEQ ID NO: 148 (Example No. 148)],0.0483 nM
3,cyclo([TyrEtNAc]W[Phe(4-COOH)]G[Pro(trans-4-NH2)][Trp(4-Cl)(βS-Me)]D[dNMeA]G[Bip(4'-COOH)]WS[dA][hPhe]) (SMILES CC(=O)NCCOc1ccc(C[C@@H]2NC(=O)[C@H](CCc3ccccc3)NC(=O)[C@@H](C)NC(=O)[C@H](CO)NC(=O)[C@H](Cc3c[nH]c4ccccc34)NC(=O)[C@H](Cc3ccc(-c4ccc(C(=O)O)cc4)cc3)NC(=O)CNC(=O)[C@@H](C)N(C)C(=O)[C@H](CC(=O)O)NC(=O)[C@H]([C@@H](C)c3c[nH]c4cccc(Cl)c34)NC(=O)[C@@H]3C[C@@H](N)CN3C(=O)CNC(=O)[C@H](Cc3ccc(C(=O)O)cc3)NC(=O)[C@H](Cc3c[nH]c4ccccc34)NC2=O)cc1) [SEQ ID NO: 150 (Example No. 150)],0.0633 nM
4,cyclo([TyrEtNAc]W[Phe(4-COOH)]G[Pro(trans-4-NH2)][Trp(4-Cl)(βS-Me)]D[dNMeA]G[Bip(4'-COOH)]WL[dDab][hTyr]) (SMILES CC(=O)NCCOc1ccc(C[C@@H]2NC(=O)[C@H](CCc3ccc(O)cc3)NC(=O)[C@@H](CCN)NC(=O)[C@H](CC(C)C)NC(=O)[C@H](Cc3c[nH]c4ccccc34)NC(=O)[C@H](Cc3ccc(-c4ccc(C(=O)O)cc4)cc3)NC(=O)CNC(=O)[C@@H](C)N(C)C(=O)[C@H](CC(=O)O)NC(=O)[C@H]([C@@H](C)c3c[nH]c4cccc(Cl)c34)NC(=O)[C@@H]3C[C@@H](N)CN3C(=O)CNC(=O)[C@H](Cc3ccc(C(=O)O)cc3)NC(=O)[C@H](Cc3c[nH]c4ccccc34)NC2=O)cc1) [SEQ ID NO: 149 (Example No. 149)],0.81 nM
5,cyclo([TyrEtNAc]W[Phe(4-COOH)]G[Pro(trans-4-NH2)][Trp(4-Cl)(βS-Me)]D[dNMeA]G[Bip(4'-COOH)]WS[dA][hTyr]) (SMILES CC(=O)NCCOc1ccc(C[C@@H]2NC(=O)[C@H](CCc3ccc(O)cc3)NC(=O)[C@@H](C)NC(=O)[C@H](CO)NC(=O)[C@H](Cc3c[nH]c4ccccc34)NC(=O)[C@H](Cc3ccc(-c4ccc(C(=O)O)cc4)cc3)NC(=O)CNC(=O)[C@@H](C)N(C)C(=O)[C@H](CC(=O)O)NC(=O)[C@H]([C@@H](C)c3c[nH]c4cccc(Cl)c34)NC(=O)[C@@H]3C[C@@H](N)CN3C(=O)CNC(=O)[C@H](Cc3ccc(C(=O)O)cc3)NC(=O)[C@H](Cc3c[nH]c4ccccc34)NC2=O)cc1) [SEQ ID NO: 151 (Example No. 151)],0.0759 nM

# Source: patent US20230406885A1, “CYCLIC PEPTIDES FOR TRAPPING INTERLEUKIN-1 BETA” (MERCK SHARP & DOHME LLC, priority 2022, published 2023)
